In the supplement of paper PMC12042874:
± gives the uncertainty stated by the source.

Experiment: amyloid nucleation score (Sup35N fusion, yeast selection) (log enrichment); library NNK2; higher = more nucleation; inactive = no reads after selection
Outline: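 Sup35N fusions to peptides of 20 random codons were expressed in psi-negative yeast, induced 24 hours with 100 μM copper sulfate, and grown 7 days at 30°C on medium lacking adenine and uracil. Input and output plasmid inserts were sequenced by Illumina. The nucleation score is the DiMSum log enrichment of output over input reads, centred on the mode score of non-aggregating sequences. Sequences with under 100 input reads were excluded.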

Row | Substance | amyloid nucleation score
1 | FTILTP | -0.375 ± 0.79
2 | FTIYCSYIFCQCWDTSEKSK | 8.593 ± 0.044
3 | FTKKFYWGYPWCYMVF | -0.229 ± 0.8
4 | FTKVFRLHYFMRLTSMYVAF | -0.567 ± 1.1
5 | FTMYPITG | 0.311 ± 0.29
6 | FTPIGIIMYSFFKRTFTFVT | -1.06 ± 1.1
7 | FTRYLTFNFRLETYYRGSHG | 1.44 ± 0.18
8 | FTVDCLVVIFVYIEPMNWMG | 0.672 ± 0.62
9 | FVANSRLLALRLVIGTMLAG | 0.214 ± 0.77
10 | FVCTDCLF | -1.35 ± 0.48
11 | FVKWIMY | 4.09 ± 0.098
12 | FVLWIRYALRVTDYTVYMGA | 0.436 ± 0.39
13 | FVNFMGWTMSNINNVYFGHK | 7.303 ± 0.055
14 | FVQCLWVAWGSSGSSWQKSE | 5.541 ± 0.041
15 | FVSEINVTSGD | 0.547 ± 0.42
16 | FVSGRVQLQASGLVRGNRWV | inactive
17 | FVSLTLCCYGEGDVPLREVQ | 1.9 ± 0.14
18 | FVSLVWKTLKVSRSIVSNFD | 2.74 ± 0.15
19 | FVSRSLNSQGQWFRSMTECR | -0.517 ± 0.36
20 | FVWGREMGCWCQEWYRCMRN | -0.015 ± 0.24
21 | FVWSFHCCMARWYGLGCSYM | 1.1 ± 0.15
22 | FVYESIFLHRMSYNPIRWWV | 0.112 ± 1.1
23 | FWEYEPLPPQQMSTFPD | -0.106 ± 0.79
24 | FWFIRTRAGDWCPSSSPRMF | 0.149 ± 0.23
25 | FWFKV | 0.335 ± 0.42

Row | Substance | amyloid nucleation score
26 | FWQNCMALLFRFIMFKRKNV | -1.27 ± 1
27 | FWSRKCSFCFNGASVSGEVM | -0.088 ± 1.1
28 | FWVPSLSTYLSFFGKFRDWA | -0.347 ± 0.5
29 | FYAHYASHL | inactive
30 | FYCSNSYYNVRIDRQNYCQM | 5.501 ± 0.052
31 | FYENN | -0.729 ± 0.78
32 | FYFGYLTFISENHVGIQEQG | inactive
33 | FYFIIWNSLRPILRLSVAPV | -0.392 ± 0.61
34 | FYFKRQNNNDQVIVTHTT | -0.103 ± 0.61
35 | FYFVSSRSIDGVFFRKILNS | inactive
36 | FYHISYGERKRGGLC | inactive
37 | FYKGWMVLALNDNSVVSINV | 3.42 ± 0.085
38 | FYMMFMNLCFIYYCVLMEGY | inactive
39 | FYRGLVDHRMNFITFNCGRQ | 5.6 ± 0.095
40 | FYRLLWSRNCTEVR | -1.43 ± 0.75
41 | FYRSGEHRRSCRVRVVYGEL | 0.397 ± 0.64
42 | FYRTSRASAGLS | -0.237 ± 0.79
43 | FYSFLINVPQCPER | 0.636 ± 0.81
44 | FYSVHSCLYVLIHRVQHACC | -0.235 ± 1.1
45 | FYWRFTFRLVCRFCYTRHLK | -0.522 ± 0.35
46 | GAFIMWYTGWVPHVDSGCCL | -1.04 ± 1.1
47 | GAIIDITRFGFLLYF | -0.847 ± 0.34
48 | GALMMMVEGSESVNKVHFVY | -1.05 ± 0.44
49 | GAMNCRVSSKTRWCDTHMVP | 1.53 ± 0.52
50 | GAVHGMT | 0.538 ± 0.55

Row | Substance | amyloid nucleation score
51 | GAYNNFIMCKSFVFSFQSGD | 6.33 ± 0.063
52 | GCFSCHIWFTVRFYWTLYVP | inactive
53 | GCISSVQD | inactive
54 | GCLRGIGIGGCVGCLRRILF | inactive
55 | GCSAQACYK | 1.03 ± 0.23
56 | GCTCYWFS | 1.63 ± 0.15
57 | GCWSPKLSIGRRSRSALYRG | 1.2 ± 0.66
58 | GDAWGTSNIDQSWKLYLSGT | -0.12 ± 0.3
59 | GDFLWNLWVYHNY | 1.05 ± 0.17
60 | GDGFLSFSERSKKYSQSS | -0.855 ± 0.55
61 | GDSPNNSYWIADSW | 2.75 ± 0.15
62 | GDTVRRLRLEHKSVDLMIQY | 3.73 ± 0.087
63 | GDVYCNGLGISFVYFRGSRS | inactive
64 | GDYWGAGWRRA | 0.184 ± 0.49
65 | GECHEWV | -0.837 ± 1.1
66 | GEGVSIMYRWHL | 1.21 ± 0.1
67 | GEQYATGLP | 5.514 ± 0.039
68 | GERRTSLVVKYGRVAGYTYN | -0.273 ± 0.62
69 | GFEGMSMADRKKGEVRAIWG | 0.755 ± 0.31
70 | GFFVVISGRMKVYVQGKSWL | -0.325 ± 0.56
71 | GFGLPTGEVVTNNMALGKTE | -0.844 ± 0.49
72 | GFICPFVQLCVFRSRHRFEV | 0.676 ± 0.8
73 | GFKSFEHL | 1.91 ± 0.14
74 | GFNLKVVVITTFDAFYYHAT | inactive
75 | GFQFLIGLSHLNGYLITPRY | 3.42 ± 0.059

Row | Substance | amyloid nucleation score
76 | GFQWLDAYLLGSFWMRMSTC | 0.516 ± 0.81
77 | GFVERNMYAVDNDFYVQNQT | -1.2 ± 0.56
78 | GFVQDAEYRISRSCLRCILM | 4.03 ± 0.089
79 | GFVVMMFNLANRYSMQGDVG | 8.234 ± 0.052
80 | GGERYHPYYDAA | 0.268 ± 0.54
81 | GGFRWSIQEHWYCTNAYSTD | 0.734 ± 0.81
82 | GGGHMFFAGQ | -1.28 ± 1.1
83 | GGKTYNSTVVDVCDHAFCDY | -0.924 ± 1.1
84 | GGTVNYFNTLQRSMGNVESV | 3.66 ± 0.046
85 | GGWLAWVRKSYVIVFVWGGG | 0.257 ± 0.46
86 | GGWNLDYVMRVYTRRLCNAS | 1.17 ± 0.41
87 | GGWYDPGCSGGDIITDEVDW | -0.159 ± 0.55
88 | GHGFCDNVTSP | -1.2 ± 1.1
89 | GHLLASKLLQSSYETCS | 0.286 ± 0.62
90 | GHSIVLCCRSESPLKKSRYM | -0.432 ± 1
91 | GHSLYPWSALTPLL | inactive
92 | GHYKISKAFTVTST | 2.58 ± 0.095
93 | GHYLYGFSKNPASENLNAFQ | -1.68 ± 0.75
94 | GIESSPFCFSLPGSATKRKQ | 0.485 ± 0.36
95 | GIFWTVNIGEICGAIEWSEG | 0.276 ± 0.29
96 | GIISRMGAVSLNLMLQKRAS | 0.8 ± 0.46
97 | GIKHVCAWDIN | inactive
98 | GILYFLFVLSSVGDVCRLLV | -0.709 ± 0.63
99 | GIMSFG | 1.66 ± 0.43
100 | GINWSAVYR | -0.083 ± 0.24

Row | Substance | amyloid nucleation score
101 | GIRWQVATDSPRLSGYPLCT | 3.46 ± 0.083
102 | GIVVSIMHGIDSYGAIY | -0.395 ± 0.39
103 | GKCWRVRASIFVGILFKIAG | 0.486 ± 0.8
104 | GKESTTKH | -0.494 ± 0.56
105 | GKLLRHFGLMYCLFLIAAYG | 0.108 ± 0.42
106 | GKVGWDCCISQIYCLDLFIP | 8.292 ± 0.047
107 | GKYCYPL | -0.81 ± 0.32
108 | GLAMFKYIMAIVRNF | -0.855 ± 0.37
109 | GLDMDGSVLPFVFYRSMYGE | 0.136 ± 0.55
110 | GLFCSLLCLVGAVSEKT | 5.26 ± 0.086
111 | GLFSSGRFVSADSM | -0.368 ± 0.54
112 | GLGMGDFCILVKLKANVSRC | -0.266 ± 1
113 | GLGSPLHIWNIFVRRWYHRY | inactive
114 | GLLLGMVFFCGSSTTNMGGI | 5.902 ± 0.051
115 | GLLPFGISAMNLRFHQGVAR | -0.359 ± 0.2
116 | GLMMPYL | 0.062 ± 0.39
117 | GLNLSREYYNLFEVEVHADT | -0.178 ± 0.55
118 | GLNYIARMSQN | 0.392 ± 0.3
119 | GLPPVC | 0.851 ± 0.22
120 | GLPVCYNRVT | -1.22 ± 1
121 | GLSAIPFTDG | -0.722 ± 0.45
122 | GLTLFVRSLALRNYVCDWSP | 0.149 ± 0.36
123 | GLVLWRRHFKAAASVSMQSW | 0.216 ± 0.4
124 | GLVSLLYGY | 0.185 ± 0.34
125 | GLWVSHEVCIGCVF | inactive

Row | Substance | amyloid nucleation score
126 | GLYVLYDNINWDERTRALSG | -0.728 ± 0.48
127 | GLYYASYNN | -1.63 ± 0.5
128 | GMESSMVRNVEHVKERVYIE | 3.6 ± 0.1
129 | GMMLPVFMIFIRRACINYSL | inactive
130 | GMRADSYCVRVGWFLCQNIN | 7.002 ± 0.07
131 | GMRSCYWCEPSYCWASA | 2.9 ± 0.066
132 | GMTEWVGLAQERIYAWAKSE | 0.517 ± 0.36
133 | GNGLVMLKTVHLWVLRDVLG | 0.839 ± 0.24
134 | GNLDDTSLYCLYSLVSSRCS | 0.373 ± 0.29
135 | GNMVFAPCDL | 1.07 ± 0.2
136 | GNRFNRRLWSQATILEF | -0.166 ± 0.76
137 | GNSISFVYQSLICFNCDLSV | 7.453 ± 0.024
138 | GNSLNSYLSE | -0.346 ± 0.42
139 | GNVWILIYNV | 6.164 ± 0.057
140 | GNYHFCRERGRVACW | -0.378 ± 1
141 | GPDLESFLRVIMQNFHDTKK | -1.54 ± 0.41
142 | GPFLMSVTLVYLFVFMFERL | -0.769 ± 0.36
143 | GPISVKRYL | 1.64 ± 0.35
144 | GPLRNEASGIWKKPGQCMTD | -0.813 ± 0.76
145 | GPNDWRNCFRD | 0.401 ± 0.56
146 | GQFGVCITSPARQLSYD | inactive
147 | GQPRLRSY | 3.89 ± 0.1
148 | GQWRKGAYMVC | 0.477 ± 0.34
149 | GQYKTGVRGSRLNLPLMLTE | 0.328 ± 0.19
150 | GRCWI | 1.39 ± 0.24

Row | Substance | amyloid nucleation score
151 | GRDNYSWCSRVEPCKRNGAL | 0.103 ± 0.43
152 | GRELRTVRNAGPFDQWVGVS | 5.79 ± 0.086
153 | GRFKITVTRYANVYSMLRVI | 1.02 ± 0.49
154 | GRLLFAWLYLCDYGGYIMRV | -0.081 ± 1.1
155 | GRRMIRAERTIRLIIHVRSL | 0.767 ± 0.6
156 | GRSFFMF | 2.5 ± 0.091
157 | GRTCVRRGQAE | 0.909 ± 0.47
158 | GRTVQIMDRVFS | -1.12 ± 0.76
159 | GRVISCVGLTAFNKAVGSCR | 0.626 ± 0.42
160 | GRVNLDRCSSWVGWFVGCLL | -1.09 ± 0.78
161 | GRWVNCKTVVLFSSDRRQAR | 3.36 ± 0.14
162 | GRYVNCGRSLRICSINLTKI | -1.31 ± 0.55
163 | GSAFGGRRLFEGLRGGIREW | 0.665 ± 0.4
164 | GSDAVR | 2.7 ± 0.082
165 | GSFSGKYPRHR | -0.266 ± 1
166 | GSGGWLAGHKTVK | 0.174 ± 1
167 | GSICAHGECF | 0.57 ± 0.81
168 | GSIYTCCGAGRKQNVGPKYL | 2.25 ± 0.1
169 | GSLARSTD | 1.25 ± 0.15
170 | GSLKCDAHLG | 0.339 ± 0.18
171 | GSLLDVTHRRKVLSKSMRGL | 0.016 ± 0.35
172 | GSNCIEVFRGWVKFGMDCFW | inactive
